Molecular target: EGFR kinase domain (UniProt P00533 696-1022, fluorescent dye attached through the His-tag)
Assay: MST

B1: Sorting Nexin 1 (SNX1) Bar domain (other)
chain: MNESDIWFEEKLQEVECEEQRLRKLHAVVETLVNHRKELALNTAQFAKSLAMLGSSEDNTALSRALSQLAEVEEKIEQLHQEQANNDFFLLAELLSDYIRLLAIVRAAFDQRMKTWQRWQDAQATLQKKREAEARLLWANKPDKLQQAKDEILEWESRVTQYERDFERISTVVRKEVIRFEKEKSKDFKNHVIKYLETLLYSQQQLAKYWEAFLPEAKAIS
For B1, which Kd is on record?
The Kd was 2900 nM.
